Data: patent US7812117B2, “Vasostatin as marrow protectant” (The United States of America as represented by the …, priority 1998, dated 2010)

What was measured:
[1] = test system: human Burkitt lymphoma cell line CA46; assay: CA46 tumor size and weight in irradiated BALB/c nu/nu mice treated with MBP or MBP-vaso; format: in vivo; conditions: 400 rad, CA46 s.c.; MBP 40 μg/mouse/day or MBP-vaso 60 μg/mouse/day s.c.
Procedure: To examine this further, 7 week old BALB/c nu/nu mice were first irradiated with 400 rad. After 24 hr, the mice were incoculated s.c. with the human Burkitt lymphoma cell line CA46. One group of mice (n=12) was treated s.c. with the control protein maltose binding protein (MBP, 40 μg/mouse/day), whereas another group (n=12) was treated s.c. with MBP-vaso (60 μg/mouse/day). Some of the mice from each group were killed on day 15, whereas the other mice were kept for up to 2.5 months.

[2] = test system: murine Lin- bone marrow cells enriched with hematopoietic progenitors; assay: Proliferation of lineage-negative bone marrow population enriched for hematopoietic progenitors; format: cell-based, mouse
Procedure: FIG. 11 is a set of two bar graphs showing the proliferative responses of unseparated (FIG. 11A) and purified (FIG. 11B) bone marrow cell populations in response to vaso. Bone marrow cell populations, obtained from the femural cavities of C57BL/6NCR mice (9 weeks of age) were either used as such or were further purified by negative selection as lineage negative (CD5, CD45R, CD11b, Gr-1 and TER119) cells by magnetic cell depletion. Both cell populations were incubated (0.5×10^6 cells/ml) in culture medium supplemented with IL-3 (20 ng/ml) with or without vaso (10 μg/ml). Cell proliferation was measured by ^3H thymidine incorporation during the final 22 hr of a 4, 5 or 6-day (D) culture. Data shown reflects the mean of triplicate cultures.
The examples described above utilized unpurified populations of murine bone marrow cells derived from the femur. To characterize the cell or cells within the bone marrow cell population that are targets of stimulation by vaso, cell separation experiments were performed. […]
The effects of vaso were tested on this cell population that is enriched with murine hematopoietic cells, and compared with unseparated bone marrow populations. […] On days 4 and 5, cell proliferation was measured. […]

[3] = test system: variety of cell and cell lines; assay: Proliferation of a variety of cells and cell lines (mononuclear cells, lymphoid, tumor lines, fibroblasts); format: cell-based, human; conditions: vaso 0.25 to 50 μg/ml
Description: Human mononuclear cells, and mononuclear cells enriched for B or T cells, were used in proliferation assays in the presence of phytohemagglutinin(Sigma), pokeweed mitogen (Sigma) or Epstein-Barr virus (B95-8 strain), as described previously (Tosato et al., 1988). The lymphoblastoid cell line VDS-0, the Burkitt cell lines CA46, BL41, KK124, Ag876, SHO (Cherney et al., 1997), the T-cell line Molt-4 (ATCC), the Hodgkin's lymphoma cell line Hs445 (ATCC); the prostate adenocarcinoma cell lines TSU-Prl (from A. Passaniti, NIH, Baltimore, Md.), Du145 (ATCC), and PC3 (ATCC), and the acute promyelocytic leukemia cell line HL60 (ATCC) were cultured in RPMI 1640 medium with 10% heat-inactivated FCS (BioWhittaker), […] L-glutamine (Sigma) and 5 μg/ml gentamicin, and tested in 3-5 days proliferation assays at cell densities varying from 300 to 2400 cells/microwell. The neuroblastoma cell line SKNMC (ATCC) was cultured in EMEM medium BioWhittaker) with 10% heat inactivated FCS and gentamicin and tested for proliferation at 125-1000 cells/well. The lung adenocarcinoma cell line A549 (ATCC) was cultured in F-12 Nutrient Mixture (HAM, Gibco BRL) with 10% heat-inactivated FCS, gentamicin and tested for proliferation at 250-2000 cells/well. […]

murine bone marrow cells [4] = test system: murine bone marrow cells
[5] = test system: human umbilical vein-derived (HUVEC) endothelial cells; conditions: as previously reported (Pike et al., 1998; 1999); cited from earlier work
murine bone marrow cells [6] = assay: Murine bone marrow cell proliferation in vitro ([3H] thymidine incorporation)
[7] = vaso 10 μg/ml in the presence of growth factors

B1: vaso: N-terminal domain of calreticulin (amino acids 1-180, SEQ ID NO:3); given as fusion protein with maltose binding protein, MBP-vaso (protein)
chain: EPAVYFKEQFLDGDGWTSRWIESKHKSDFGKFVLSSGKFYGDEEKDKGLQTSQDARFYALSASFEPFSNKGQTLVVQFTVKHEQNIDCGGGYVKLFPNSLDQTDMHGDSEYNIMFGPDICGPGTKKVHVIFNYKGKNVLINKDIRCKDDEFTHLYTLIVRPDNTYEVKIDNSQVESGSLE
modifications: Vasostatin
[1]
  tumor size: 0.67 cm^2
  tumor weight: 0.22 g
[2]; IL-3 alone or IL-3 together with IL-6 and Stem Cell Factor
  cell growth of murine bone marrow cells enriched for hematopoietic cells by negative selection: similarly stimulated cell growth
[2]; enriched marrow, vaso 10 μg/ml, IL-3 20 ng/ml
  increase in cell proliferation on day 5: 3.3 fold
[3]
  effects on proliferation of a variety of cell and cell lines: minimal stimulatory (or inhibitory) effects
Murine bone marrow cells [4]
  bone marrow cell proliferation induced by IL-3 at the highest dose of cisplatinum: minimal
[5]
  proliferation of primary cultures of HUVEC: consistently inhibited the proliferation
Murine bone marrow cells [6]; Vaso 10 μg/ml, IL-3 (30 μg/ml), cisplatinum between 5 and 0.02 nM
  murine bone marrow cell proliferation with or without cisplatinum: enhanced murine bone marrow cell proliferation
Murine bone marrow cells [6]; all used at 10 μg/ml, IL-3 20 ng/ml
  growth of murine hematopoietic cells after 5 or 6 days of culture: stimulated the growth
Murine bone marrow cells [6]; day 5, vaso 12.5-50 μg/ml added to IL-3 plus IL-6 plus Stem Cell Factor
  bone marrow cell proliferation vs growth factors alone: 21-54 fold
Murine bone marrow cells [6]; mafosfamide added after 3 days of culture
  mafosfamide concentrations at which growth stimulatory effect of vaso was appreciable: ≤ 8 µg/mL
Murine bone marrow cells [6]; unseparated marrow, vaso 10 μg/ml, IL-3 20 ng/ml
  increase in cell proliferation on day 5: 3.4 fold
Murine bone marrow cells [6]; vaso 10 μg/ml in medium alone, no growth factors
  direct stimulation of bone marrow cell proliferation: failed to directly stimulate
Murine bone marrow cells [6]; [7]
  promotion of bone marrow cell proliferation on day 5: 39 fold
  promotion of bone marrow cell proliferation on day 6: 17 fold
Murine bone marrow cells [6]; vaso 10 μg/ml in the presence of growth factors (IL-3, IL-6, stem cell factor)
  promotion of bone marrow cell proliferation on day 4: 6.5 fold
Murine bone marrow cells [6]; vaso 10 μg/ml, absence of exogenously added growth factors, 7 day culture
  stimulation of background cpm: approximately 2 fold
Murine bone marrow cells [6]; vaso 10 μg/ml, Etoposide 77 nM, growth factors
  promotion of bone marrow cell proliferation in the presence of Etoposide: to the same or greater degree than in the absence of Etoposide
Murine bone marrow cells [6]; vaso 10 μg/ml, Etoposide 385-15.4 nM, day 5
  increase of IL-3-induced bone marrow proliferation in the presence of Etoposide: evident even in the presence of Etoposide
Murine bone marrow cells [6]; vaso 10 μg/ml, IL-3 20 ng/ml
  bone marrow cell proliferation induced by IL-3, day 5: enhanced bone marrow cell proliferation
  enhancement of IL-3 induced response on day 4: approximately 3 fold
Murine bone marrow cells [6]; vaso 10 μg/ml, IL-3 or combination of IL-3, IL-6 and Stem Cell Factor
  enhancement of proliferative response on day 5 or 6: 7-16 fold
Murine bone marrow cells [6]; vaso 10 μg/ml, combination of IL-3, IL-6 and Stem Cell Factor
  proliferative response on day 3: enhanced the response induced by the combination of IL-3, IL-6 and Stem Cell Factor slightly
Murine bone marrow cells [6]; vaso 12.5 μg/ml, growth factors, 6 days culture
  proliferation of bone marrow cells exposed to mafosfamide: markedly enhanced
Murine bone marrow cells [6]; vaso 0.25-10 μg/ml, methotrexate 100 nM and growth factors, 7 day culture
  bone marrow cell proliferation in the presence of methotrexate: dose-dependently stimulated
